In publication PMC10644982, “Targeting amyotrophic lateral sclerosis by neutralizing seeding-competent TDP-43 in CSF” (Brain Communications, 2023):

Biological target: the molecule itself
Assay: thioflavin T aggregation kinetics + electron microscopy; synthetic substrate peptide alone at a range of concentrations, seed-free or seeded with the final product of the 15 µM reaction; 40 mM Tris-HCl, 5 mM DTT, 0.002% SDS, 50 µM ThT, 40°C, intermittent shaking; fibrils seen by negative-stain transmission electron microscopy

B1: TDP-43 peptide (352–414) (peptide)
peptide: NNQNQGNMQREPNQAFGSGNNSYSGSNSGAAIGWGSASNAGSGSGFNGGFGSSMDSKSSGWGM
notes: free N- and C-termini (H- ... -OH); also called assay substrate; SAA substrate
  binding result: binds
